Results on 1 substance are retold here after paper PMC11167044.

The target of this experiment is PKM2 in SW480 cells (human (endogenous in SW480)) (UniProt P14618). The experiment is described as follows: cross-linking; PKM2 cross-linked in SW480 cells expressing MYG1 variants, following ref. 37; SDS-PAGE and western blot.

Chain of PKM2 in SW480 cells, P14618 1-531 (enzyme; other documents disagree on this pair) (P14618 whole entry): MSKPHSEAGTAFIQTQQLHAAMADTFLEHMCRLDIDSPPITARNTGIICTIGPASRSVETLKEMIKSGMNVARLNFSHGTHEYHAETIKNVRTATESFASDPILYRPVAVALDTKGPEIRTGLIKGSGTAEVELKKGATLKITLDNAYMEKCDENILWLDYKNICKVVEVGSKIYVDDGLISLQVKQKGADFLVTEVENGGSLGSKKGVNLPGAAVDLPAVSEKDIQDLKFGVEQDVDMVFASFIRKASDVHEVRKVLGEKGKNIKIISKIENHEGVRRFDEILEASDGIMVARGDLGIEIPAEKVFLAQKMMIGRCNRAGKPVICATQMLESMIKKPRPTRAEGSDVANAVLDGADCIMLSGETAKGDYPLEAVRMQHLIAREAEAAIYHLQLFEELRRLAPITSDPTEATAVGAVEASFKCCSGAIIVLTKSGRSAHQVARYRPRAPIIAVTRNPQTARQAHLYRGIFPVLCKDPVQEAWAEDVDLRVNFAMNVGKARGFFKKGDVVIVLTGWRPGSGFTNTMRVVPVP

Turning to “PKM2 in SW480 cells, P14618 1-531 (enzyme; other documents disagree on this pair)”, the stoichiometry N (as a rule, a count of units in the complex or per binding partner) was 2.
